Data published in the RNAGym collection of RNA variant scans (doi:10.1021/acssynbio.7b00057).

B1: Pistol ribozyme (parent)
chain: GGGUCGUUGUUCCAUAAUCGCGUGGAUAUGGCACGCAAGUUUCUACCGGGCACCGUAAAUGUCCGACUGGAGCCGUUCGGGCGGCUAUAAACAGACCUCAGGCCCGAAGCGUGGCGGCACCUGCCGCCGGUGGUAAAAAAGAUCGGAAGAGCACACGUCU

Variants of: B1
Experiment: aptazyme ON/OFF ratio, guanine; higher = stronger switching; co-transcriptional cleavage with and without guanine

Aptazyme ON/OFF ratio, 1.35:
U7A U8A G9A U11A C12U

Aptazyme ON/OFF ratio, 1.37:
U7A U8A G9C U10A U11A C12A C13A

Aptazyme ON/OFF ratio, 1:
U7A U8A G9C U10C U11C C12A C13A
U7A U8A G9A U10C U11C C12G C13U

Aptazyme ON/OFF ratio, 1.11:
U7A U8A G9A U11G C12A
U7A U8A G9C U10A U11G C12U C13G
U7A U8A G9A U10C C12G C13A
U7A U8A G9A U11A C13G
U7A U8A G9A U10C U11A C12G C13G
U7A U8A G9C U10A C12A C13A
U7A U8A G9C U10A U11G C13G

Aptazyme ON/OFF ratio, 1.2:
U7A U8A G9A U11A C13A
U7A U8A G9C U10A U11C C12A C13U
U7A U8A G9A U10G U11G C12A C13A

Aptazyme ON/OFF ratio, 1.06:
U7A U8A G9A U10C U11C C12U C13A
U7A U8A G9C U10C U11A C12A C13U
U7A U8A G9A U10C U11C C13U
U7A U8A G9A U11C C13A
U7A U8A G9C U10C U11G C12U C13U

Aptazyme ON/OFF ratio, 1.52:
U7A U8A G9A U10G U11G C12G
U7A U8A G9A U10C

Aptazyme ON/OFF ratio, 0.929:
U7A U8A G9A U10G C12U C13U

Aptazyme ON/OFF ratio, 1.12:
U7A U8A G9C U10A U11C C12A C13G
U7A U8A G9C U10A U11C C12A C13A
U7A U8A G9A U11C C13G

Aptazyme ON/OFF ratio, 1.08:
U7A U8A G9A U11C C12U C13U
U7A U8A G9A U10C C12G C13U
U7A U8A G9A U10C U11A C12A
U7A U8A G9C U10C U11G C12G C13U
U7A U8A G9C U10C U11G C12G C13G
U7A U8A G9A U10C U11A C12G C13A
U7A U8A G9C U10C U11G C12U
U7A U8A G9A U10G U11A C12G C13A
U7A U8A G9A U10G U11C C13G
U7A U8A G9A U10G U11C C13A
U7A U8A G9A U10C U11C C12G C13A

Aptazyme ON/OFF ratio, 1.02:
U7A U8A G9C U10C U11C C12U
U7A U8A G9C U10C U11C C12G C13A
U7A U8A G9C U10C U11A C12A C13A
U7A U8A G9A U10G U11A
U7A U8A G9C U10C U11C C12A C13U
U7A U8A G9C U10C C12U C13A
U7A U8A G9C U10C U11G C12U C13A

Aptazyme ON/OFF ratio, 1.29:
U7A U8A G9A U11G C13U
U7A U8A G9A U10G U11G C12A C13U
U7A U8A G9A U10G U11G C12A C13G

Aptazyme ON/OFF ratio, 1.55:
U7A U8A G9A U10G U11G C12G C13G

Aptazyme ON/OFF ratio, 1.15:
U7A U8A G9A U10G U11A C12G C13G
U7A U8A G9A U11G C13A

Aptazyme ON/OFF ratio, 1.3:
U7A U8A G9A U11G C12G

Aptazyme ON/OFF ratio, 1.33:
U7A U8A G9A U11G C12G C13G
U7A U8A G9A U10G U11A C12G C13U
U7A U8A G9A U10G U11G C12U

Aptazyme ON/OFF ratio, 1.17:
U7A U8A G9C U10A U11G C12U C13A
U7A U8A G9A U10C U11A C12U
U7A U8A G9C C12A C13A
U7A U8A G9A U10G U11C C12G C13G
U7A U8A G9A U11A C12A C13A
U7A U8A G9C C12G C13G
U7A U8A G9A U10G C12U C13G
U7A U8A G9C U10A U11G C13A

Aptazyme ON/OFF ratio, 1.05:
U7A U8A G9C U10C U11C C12A
U7A U8A G9C U10C U11C C12G
U7A U8A G9A U10C U11C C12U C13U
U7A U8A G9A U10G U11C C12U
U7A U8A G9A U10C U11C C12G
U7A U8A G9C U10A U11C C12U
U7A U8A G9C U10C U11G C12U C13G
U7A U8A G9A U10G C12U C13A

Aptazyme ON/OFF ratio, 1.01:
U7A U8A G9C U10C U11C C12A C13G
U7A U8A G9A U10C U11C C13A

Aptazyme ON/OFF ratio, 1.14:
U7A U8A G9A U10G U11G C12U C13U
U7A U8A G9C U10A U11G C12U C13U
U7A U8A G9A U11C C12G C13G
U7A U8A G9C U10A U11A C12A C13U
U7A U8A G9A U10C U11G
U7A U8A G9A U11G C13G
U7A U8A G9A U10G C12U

Aptazyme ON/OFF ratio, 1.13:
U7A U8A G9A U10G U11C C12G
U7A U8A G9C C12A C13G
U7A U8A G9C U10A U11C C12A
U7A U8A G9A U10C C13A
U7A U8A G9A U10G U11A C12U C13A

Aptazyme ON/OFF ratio, 1.16:
U7A U8A G9A U11G C12G C13A
U7A U8A G9C U10A C12A C13G
U7A U8A G9A U11G C12U C13A
U7A U8A G9C U10A U11C C12G
U7A U8A G9A U10G U11A C12U C13G

Aptazyme ON/OFF ratio, 1.23:
U7A U8A G9C U10A U11A C12G C13G

Aptazyme ON/OFF ratio, 1.5:
U7A U8A G9A U10G U11G C12G C13A

Aptazyme ON/OFF ratio, 1.31:
U7A U8A G9A U10G U11G C12U C13G
U7A U8A G9A U10G U11C C12G C13U
U7A U8A G9A U10G

Aptazyme ON/OFF ratio, 0.997:
U7A U8A G9A U10C U11C C13G

Aptazyme ON/OFF ratio, 1.24:
U7A U8A G9A U11C C12U C13A
U7A U8A G9C U10A U11G
U7A U8A G9C C12A C13U
U7A U8A G9A U10G U11C C12G C13A
U7A U8A G9A U11A C12G
U7A U8A G9C U10A U11G C13U

Aptazyme ON/OFF ratio, 1.44:
U7A U8A G9A U10G U11G C12G C13U

Aptazyme ON/OFF ratio, 1.04:
U7A U8A G9C U10C C12A C13U
U7A U8A G9C U10C C12A C13G
U7A U8A G9C U10C C12A C13A
U7A U8A G9C U10C U11C C12G C13G
U7A U8A G9C U10A U11C
U7A U8A G9A U10G U11C
U7A U8A G9C U10C C12G
U7A U8A G9A U10C U11C C12U
U7A U8A G9A U10C C13G

Aptazyme ON/OFF ratio, 1.25:
U7A U8A G9A U10G U11G C12U C13A

Aptazyme ON/OFF ratio, 1.21:
U7A U8A G9A U11C C12U C13G
U7A U8A G9C U10A U11A
U7A U8A G9A U11A C12A C13G
U7A U8A G9A U10G U11G C13G

Aptazyme ON/OFF ratio, 1.18:
U7A U8A G9C U10A U11A C12G C13A
U7A U8A G9A U10C U11C C12A
U7A U8A G9C U10A C12A C13U
U7A U8A G9A U10G U11G C12A
U7A U8A G9A U11G C12U C13G
U7A U8A G9C C12G C13U
U7A U8A G9A U10G C12A

Aptazyme ON/OFF ratio, 1.69:
U7A U8A G9A U11G C12U

Aptazyme ON/OFF ratio, 1.07:
U7A U8A G9A U10G U11G
U7A U8A G9A U11A C12A C13U
U7A U8A G9C U10C C12U
U7A U8A G9C U10A U11A C12A C13G
U7A U8A G9C U10C U11G C12A
U7A U8A G9C U10C C12U C13U
U7A U8A G9A U10G U11G C13U
U7A U8A G9A U10C U11C C12G C13G

Aptazyme ON/OFF ratio, 1.27:
U7A U8A G9C U10A

Aptazyme ON/OFF ratio, 1.22:
U7A U8A G9C
U7A U8A G9A U10C U11A
U7A U8A G9C C12A

Aptazyme ON/OFF ratio, 1.8:
U7A U8A G9C U10C

Aptazyme ON/OFF ratio, 1.26:
U7A U8A G9A U10G U11C C12A
U7A U8A G9A U11A C12A
U7A U8A G9A U11G C12U C13U
U7A U8A G9C C12U

Aptazyme ON/OFF ratio, 1.09:
U7A U8A G9A U11C C12G C13U
U7A U8A G9C U10C U11G C12G
U7A U8A G9A U10C C13U

Aptazyme ON/OFF ratio, 1.03:
U7A U8A G9C U10C U11C C12G C13U
U7A U8A G9A U10C U11C C12U C13G
U7A U8A G9A U10C C12G C13G
U7A U8A G9C U10C U11A C12A C13G
U7A U8A G9C U10C U11G C12A C13G
U7A U8A G9C U10C U11G C12A C13U
U7A U8A G9C U10C C12A
U7A U8A G9A U10C U11C
U7A U8A G9A U10G U11C C13U

Aptazyme ON/OFF ratio, 1.32:
U7A U8A G9A U11G C12G C13U
U7A U8A G9A U10G C12G

Aptazyme ON/OFF ratio, 0.981:
U7A U8A G9C U10C U11G C12A C13A

Aptazyme ON/OFF ratio, 1.1:
U7A U8A G9A U11C C12G C13A
U7A U8A G9A U10C U11A C12G
U7A U8A G9C U10C U11G C12G C13A
U7A U8A G9A U10C U11A C12G C13U
U7A U8A G9C U10C C12U C13G
U7A U8A G9C C12G
U7A U8A G9A U11C C13U
U7A U8A G9A U10G U11A C12U C13U

Aptazyme ON/OFF ratio, 1.19:
U7A U8A G9C U10A U11A C12G C13U
U7A U8A G9A U11A C13U
U7A U8A G9A U10G U11G C13A
U7A U8A G9C C12G C13A
